Results as given in patent publication US20260116991A1 (HAINAN SIMCERE ZAIMING PHARMACEUTICAL, published 2026).
Where a chain is given by its changes, count along the chain named.

B1: F1.21.8 (antibody, human IgG1, kappa, V domains shown)
VH: EVQLQQSGPELVKPGASVKISCKTSGFLFTGHYMHWVKSSHGNILDWIGYIYPYNAISFYNQKFKGKATLTVDKSSNTAYMELRSLTSEDSAVYYCARGDYGNYVTAYWGQGTLVTVSA
VL: DVLMTQTPLSLPVSLGDQASISCRSSQSIVHSSGNTYLEWYLQKPGQSPKLLIYKVSNRFSGVPDRFSGSGSGTDFTLKISRVEAEDLGVYYCFQGSHLPWTFGGGTKLDIKR
notes: Human-murine chimeric antibody
B2: F1.41.17 (antibody, human IgG1, kappa, V domains shown)
VH: EVQLVESGGDSVKPGGSLKLSCAASGFTFSSYGMSWVRQTPDKRLEWVATINSGGSYTYYQDSVKGRFTISRDNAKNTLYLQMSSLKSEDTAIYYCVRHHYGSSYDYFDYWGQGTTLTVSS
VL: DIVMTQAAPSVPVMPGESVSISCRSSKSLLHSNGNTHLYWFLQRPGQSPQLLIYRMSNLASGVPDRFSGSGSGTAFTLRISRVEAEDVGVYYCMQHLEYPLTFGAGTKLELKR
notes: as for B1
B3: F1.78.24 (antibody, human IgG1, kappa, V domains shown)
VH: QVQLQQSGAELVKPGASVKMSCKASGYTFTTYPIEWMKQNHGKSLEWIGNFHPYNDDTNYNVKFKGKATLTVEKSSSTVYLELSRLTSDDSALYYCARRREYYGSFDVWGTGTTVTVSS
VL: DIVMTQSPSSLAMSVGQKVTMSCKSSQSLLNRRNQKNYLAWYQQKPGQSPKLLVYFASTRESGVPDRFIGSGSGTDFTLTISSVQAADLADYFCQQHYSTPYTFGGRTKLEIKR
notes: as for B1
B4: F2.23.8 (antibody, human IgG1, kappa, V domains shown)
VH: QVQLQQSGAELVRPGASVKLSCKASGYTFTDYEMHWVKQTPVHGLEWFGAIDPETGGTAYNQKFRAKATLTADKSSSTAYMELRSLTSEDSAVYYCTRFYSFAYWGQGTLVTVSA
VL: DVVMTQTPLSLPVSLGDQASISCRSSQSLVHSNGNTYLQWYLQKPGQSPKLLIYKVSNRFSGVPDRFSGSGSGTDFTLKITRVEAEDLGVYFCSQSTHVPYTFGSGTKLEIKR
notes: as for B1
B5: F2.92.1 (antibody, human IgG1, kappa, V domains shown)
VH: B4 VH with T28I, T30S, M34I, W47C, F48I, I51V, R65K, A66G, Y95F, A115T
VL: B4 VL with A19G, T81S, S94C, P100L, Y101P, S105G
notes: as for B1
B6: F2.39.2 (antibody, human IgG1, kappa, V domains shown)
VH: B4 VH with L20V, V37M, F48I, I51N, D52E, G57R, T58S, N61D, R65K, A66G
VL: B4 VL with S28G, S32N, Q39H, T81S, S96N, Y101P, S105G
notes: as for B1
B7: F1.2.14 (antibody, human IgG1, kappa, V domains shown)
VH: RVQLQQSGAELVKPGASVRMSCKASGYTFTAYSIEWMKQNLGKSLEWIGNFRPYNDDTKYNENFKGRATLTVEKSSATVYLELSRLTSDDSAVYYCARSGPTDYFDYWGQGTTLIVSS
VL: DIQMTQSPASLSASVGETVTITCRASDNIYSYLAWYQQKQGQSPQLLVYNAKTLAEGVPSRFSGSGSVTQFSLKIISLQPEDFGTYYCQHHFGTPRTFGGGTKLEIKR
notes: as for B1
B8: F1.57.21 (antibody, human IgG1, kappa, V domains shown)
VH: QVQLQQSGAELARPGASVKLSCKASGYTFTSYGISWVKQITGQGLEWIGEIYPRSESTYYNEKFKGKATLTADKSSSTAYMELRSLTSEDSAVYFCARDYGNIYSFAYWGQGTLVTVSA
VL: B7 VL with A25T, D27E, Q42K, V68G, I76N, T85S, F92Y, R96L, G100A, I106L
notes: as for B1
B9: F1.83.6 (antibody, human IgG1, kappa, V domains shown)
VH: QVQLQQSGPELVKPGASVKISCKASGYAFSSSWMNWVKQRPGKGLEWIGRIYPGDGDTNYNGRFKGKATLTVDKSSSTAYMQLSSLTSEDSAVYFCARGGVFTMALDHWGQGTTLTVSS
VL: DIQMTQSPSSLSASLGGKVTITCKASQDINKYIAWYQHKPGKGPRLLIHYTSTLQPGIPSRFSGSGSGRDYSFSISNLEPEDIATYYCLQYDNLFTFGGGTKLEIKR
notes: as for B1
B10: F1.92.17 (antibody, human IgG1, kappa, V domains shown)
VH: EVQLQQSGPELVKPGASVKMSCKASGYTFTDYNMHWVRQSHGKSLEWIGYINPNNGDTIYNQNFKGKATLTVNKSSSTAYMELRSLTSEDSAVYYCSRTITYYYSMDYWGPGTSVTVSS
VL: QIVLTQSPALMSASPGEKVTMTCSASSSVSYMYWYQQKPRSSPKPWIYLTSNLASGVPARFSGSGSGTSYSLTISSMEAEDAATYYCQQWSSNPLTFGAGTKLELKR
notes: as for B1
B11: F2.169.2 (antibody, human IgG1, kappa, V domains shown)
VH: EVQLVETGGGLVQPKGSLKLSCAASGFSFNTNAMNWVRQAPGKGLEWVARIRSKSNNYATYYADSVKDRFTISRDDSQSMLYLQMNNLKTEDTAMYYCVRDGYYVLFAYWGQGTLVTVSA
VL: B1 VL with S25F, H31N, S33N, Y41F, L99V, W101F, G105T, D110E
notes: as for B1
B12: F1.42.8 (antibody, human IgG1, kappa, V domains shown)
VH: HVQLQQPGAELVKPGASVKLSCKASGYTFTSYWMHWVRQRPGQGLEWIEMIHPNSGSTNYNEKFKSKATLTVDKSSSTAYMQLSSLTSEDSAVYYCARGNYNSSLYAMDYWGQGTSVTVSS
VL: DIQMTQTTSSLSASLGDRVTISCSASQGISNYLNWYQQKPDGTVKLLIYYASNLHSGVPSRFSGSGSGTAYSLTISNLEPEDIATYYCQQYSILPYTFGGGTKLEIKR
notes: as for B1
B13: F1.73.9 (antibody, human IgG1, kappa, V domains shown)
VH: QVQLKQSGAELVRPGASVKLSCKASGYTFTDYYINWVKQRPGQGLEWIARIYPGSGNTYYNEKFKGKATLTAEKSSSTAYMQFSSLTSEDSAVYFCACSTYYTMDYWGQGTSVTVSS
VL: QIVLTQSPAIMSASLGERVTMTCTASSGVSSSYLHWYQQKPGSSPKLWIYTTSNLASGVPARFSGSGSGTSYSLTISSMEAEDAATYYCHQYHRSPYTFGGGTKLEIKR
notes: as for B1

target: T1, monkey GPC3-His protein (monkey); experiment: SPR, antibody captured on Protein A chip, monkey GPC3-His analyte;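 also: run at 25 °C with 240 s association and up to 600 s dissociation, double-referenced, kinetics fitted to a 1:1 Langmuir binding model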
T1 construct: Bought recombinant protein; also called monkey GPC3 protein
Experimental: The flow cell was set at 25° C. The sample block was set at 16° C. Both were pretreated with the running buffer. In each cycle, first, the antibody to be tested was captured using the Protein A chip, and then a single concentration of GPC3 antigen protein was injected. […] The association was determined by injecting different concentrations of human GPC3-His in the solution and maintaining for 240 s, wherein the flow rate was 30 μL/min, and the protein was diluted at a 1:1 dilution ratio from 200 nM to obtain 5 concentrations in total. The dissociation phase was monitored for up to 600 s and triggered by switching from the sample solution to the running buffer. The surface was regenerated by washing with 10 mM glycine solution (pH 1.5) at a flow rate of 30 μL/min for 30 s. The difference in bulk refractive index was corrected by subtracting the responses obtained from the goat anti-human Fc surface. Blank injections (double reference) were also subtracted. To calculate the apparent KD and other kinetic parameters, the Langmuir 1:1 model was used.

Kd [nM] | koff [s⁻¹] | kon [M⁻¹ s⁻¹] | Binder
0.1 | 4.65e-05 | 464000 | B1
4.42 | 0.00213 | 482000 | B2
3.26 | 0.000639 | 196000 | B3
13.5 | 0.0038 | 281000 | B4
0.353 | 0.000221 | 628000 | B5
4.28 | 0.00219 | 512000 | B6
1.25 | 0.000156 | 125000 | B7
13 | 0.00306 | 236000 | B8
3.4 | 0.000503 | 148000 | B9
5.07 | 0.000139 | 27400 | B10

target: T2, human GPC3-His protein (human, UniProt P51654 25-559); experiment: SPR, antibody captured on Protein A chip, human GPC3-His analyte;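 also: measured at 25 °C flow cell, human GPC3-His injected at five concentrations up to 200 nM, 240 s association, up to 600 s dissociation, double-referenced, fitted to Langmuir 1:1 model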
T2 construct: also called human GPC3 protein; not shown: His tag

Kd [nM] | koff [s⁻¹] | kon [M⁻¹ s⁻¹] | Binder
0.271 | 6.91e-05 | 255000 | B1
7.91 | 0.0021 | 265000 | B2
7.06 | 0.00075 | 106000 | B3
20.4 | 0.00327 | 161000 | B4
0.6 | 0.000242 | 404000 | B5
6.97 | 0.0021 | 302000 | B6
2.37 | 0.00017 | 71600 | B7
21.3 | 0.00278 | 131000 | B8
5.88 | 0.000493 | 83900 | B9
7.46 | 0.00017 | 22800 | B10

target: T1, monkey GPC3-His protein; experiment: ELISA, monkey GPC3-His coated;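 also: Plate-coated antigen at 1 µg/mL, antibody binding 2 h at 37 °C, detected with HRP-labeled secondary antibody and TMB, absorbance at 450 nm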
Experimental: The specific method is described as follows: The antigen protein was diluted with PBS to a final concentration of 1 μg/mL, and the diluent was added to a 96-well ELISA plate at 50 μL/well. The plate was sealed with a plastic film and incubated at 4° C. overnight, washed twice with PBS the next day, and a blocking solution [PBS+2% (w/w) BSA] was added for blocking at room temperature for 2 h. […] After incubation at 37° C. for 2 h, the plate was washed 3 times with PBS. A horseradish peroxidase (HRP)-labeled secondary antibody (purchased from Merck, Cat. No. AP113P) was added for incubation at 37° C. for 1 h, and the plate was washed 5 times with PBS. A TMB substrate was added at 50 μL/well for incubation at room temperature for 10 min, then a stop solution (1.0M HCl) was added at 50 μL/well. An ELISA plate reader (Multimode Plate Reader, EnSight, purchased from Perkin Elmer) was used to read OD_{450 nm} values, with results as shown in Table 4 to Table 6, FIG. 1A, FIG. 1B, and FIG. 1C.

OD450 at 0.0001 nM [OD450] | OD450 at 0.001 nM [OD450] | OD450 at 0.01 nM [OD450] | OD450 at 0.1 nM [OD450] | OD450 at 1 nM [OD450] | OD450 at 10 nM [OD450] | OD450 at 100 nM [OD450] | Binder
0.05 | 0.06 | 0.12 | 0.51 | 1 | 1.11 | 1.49 | B1
0.05 | 0.07 | 0.27 | 1.36 | 2.27 | 2.64 | 1.99 | B11
0.05 | 0.06 | 0.11 | 0.46 | 0.83 | 0.81 | 1.24 | B2
0.05 | 0.06 | 0.17 | 0.55 | 0.73 | 0.21 | 0.37 | B3
0.05 | 0.08 | 0.35 | 1.61 | 2.31 | 2.46 | 2.67 | B12
0.27 | 0.28 | 0.58 | 1.8 | 2.22 | 2.24 | 2.25 | B4
0.23 | 0.27 | 0.65 | 1.9 | 2.3 | 2.24 | 2.34 | B5
0.21 | 0.34 | 0.66 | 1.98 | 2.36 | 2.28 | 2.35 | B6
0.05 | 0.05 | 0.07 | 0.27 | 0.86 | 1.03 | 1.55 | B7
0.05 | 0.06 | 0.14 | 0.77 | 1.68 | 2.15 | 2.3 | B8
0.05 | 0.05 | 0.08 | 0.43 | 0.62 | 0.32 | 0.55 | B9
0.05 | 0.05 | 0.06 | 0.15 | 0.64 | 0.62 | 0.58 | B10
0.05 | 0.06 | 0.18 | 0.73 | 1.14 | 1.27 | 1.47 | B13

target: T3, monkey GPC3 on HEK293T-monkey GPC3 cells (monkey); experiment: FACS on HEK293T-monkey GPC3 cells;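 also: flow cytometry binding of test antibodies to the cells, read as mean fluorescence intensity, with half-maximal concentration taken from fitted curves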
T3 construct: whole, on cells
Experimental: The desired cells were expanded to a logarithmic growth phase in a T-75 cell culture flask, the medium was removed by pipetting, and the cells were washed twice with a PBS buffer, and digested with trypsin. Then a complete medium was added to stop the digestion, and the cells were blown into a single cell suspension. After counting, the cells were centrifuged, and the cell pellet was resuspended with an FACS buffer (PBS+2% fetal bovine serum) to 2×10⁶ cells/mL. The cell resuspension solution was added to a 96-well FACS reaction plate at 50 μl/well, and a chimeric antibody sample to be tested was added at 50 μl/well for incubation at 4° C. for 1 h. […] After the plate was centrifuged and washed 3 times with a PBS buffer, 100 μl of the resulting solution was assayed and analyzed by FACS (FACS Canto™, purchased from BD Biosciences). Data analysis was performed by software (FlowJo) to obtain the mean fluorescence intensity (MFI) of the cells. Then, analysis was performed by software (GraphPad Prism8), data were fitted, and EC₅₀ values were calculated.

EC50 [nM] | Max MFI [MFI] | Binder
0.29 | 6320 | B1
0.51 | 9880 | B11
0.23 | 6210 | B2
0.33 | 6580 | B3
0.27 | 7620 | B12
1.1 | 4740 | B7
0.77 | 5380 | B8
0.53 | 5880 | B9
2.26 | 5520 | B10
0.32 | 5700 | B13
